The values that follow come from IntAct's records for PubMed 25465129.

B1: Ras-associated and pleckstrin homology domains-containing protein 1 (Homo sapiens), Q70E73 (parent)
chain: MEQLSDEEIDHGAEEDSDKEDQDLDKMFGAWLGELDKLTQSLDSDKPMEPVKRSPLRQETNMANFSYRFSIYNLNEALNQGETVDLDALMADLCSIEQELSSIGSGNSKRQITETKATQKLPVSRHTLKHGTLKGLSSSSNRIAKPSHASYSLDDVTAQLEQASLSMDEAAQQSVLEDTKPLVTNQHRRTASAGTVSDAEVHSISNSSHSSITSAASSMDSLDIDKVTRPQELDLTHQGQPITEEEQAAKLKAEKIRVALEKIKEAQVKKLVIRVHMSDDSSKTMMVDERQTVRQVLDNLMDKSHCGYSLDWSLVETVSELQMERIFEDHENLVENLLNWTRDSQNKLIFMERIEKYALFKNPQNYLLGKKETAEMADRNKEVLLEECFCGSSVTVPEIEGVLWLKDDGKKSWKKRYFLLRASGIYYVPKGKAKVSRDLVCFLQLDHVNVYYGQDYRNKYKAPTDYCLVLKHPQIQKKSQYIKYLCCDDVRTLHQWVNGIRIAKYGKQLYMNYQEALKRTESAYDWTSLSSSSIKSGSSSSSIPESQSNHSNQSDSGVSDTQPAGHVRSQSIVSSVFSEAWKRGTQLEESSKARMESMNRPYTSLVPPLSPQPKIVTPYTASQPSPPLPPPPPPPPPPPPPPPPPPPPLPSQSAPSAGSAAPMFVKYSTITRLQNASQHSGALFKPPTPPVMQSQSVKPQILVPPNGVVPPPPPPPPPPTPGSAMAQLKPAPCAPSLPQFSAPPPPLKIHQVQHITQVAPPTPPPPPPIPAPLPPQAPPKPLVTIPAPTSTKTVAPVVTQAAPPTPTPPVPPAKKQPAFPASYIPPSPPTPPVPVPPPTLPKQQSFCAKPPPSPLSPVPSVVKQIASQFPPPPTPPAMESQPLKPVPANVAPQSPPAVKAKPKWQPSSIPVPSPDFPPPPPESSLVFPPPPPSPVPAPPPPPPPTASPTPDKSGSPGKKTSKTSSPGGKKPPPTPQRNSSIKSSSGAEHPEPKRPSVDSLVSKFTPPAESGSPSKETLPPPAAPPKPGKLNLSGVNLPGVLQQGCVSAKAPVLSGRGKDSVVEFPSPPSDSDFPPPPPETELPLPPIEIPAVFSGNTSPKVAVVNPQPQQWSKMSVKKAPPPTRPKRNDSTRLTQAEISEQPTMATVVPQVPTSPKSSLSVQPGFLADLNRTLQRKSITRHGSLSSRMSRAEPTATMDDMALPPPPPELLSDQQKAGYGGSHISGYATLRRGPPPAPPKRDQNTKLSRDW
B2: Amyloid beta A4 precursor protein-binding family B member 1-interacting protein (Mus musculus), Q8R5A3 (parent)
chain: MGESNEDIDQMFSTLLGEMDLLTQSLGVDTLPPPDPNPPREEFNYTVGFKDLNESLNALEDQDLDALMADLVADISEAEQRTIQAQKESSQNQDRFALLRASDGQGTASGGYGASAAAIDVSHHEEALPPPPVEPMLDLLPPPPPPPPPELLSKEEEEAKAKADKIKLALEKLKEAKVKKLVVKVHMDDSSTKSLMVDERQLARDVLDNLFEKTHCDCNVDWCLYEIYPELQIERVFEDHENVVEVLSDWTRDTENKVLFLEKEERYAVFKNPQNFYLDNKGKKENKETNEKMNAKNKEYLLEESFCGTSIIVPELEGALYLKEDGKKSWKRRYFLLRASGIYYVPKGKTKTSRDLACFIQFENVNIYYGIQCKMKYKAPTDHCFVLKHPQIQKESQYIKYLCCDDARTLSQWVMGIRIAKYGKTLYDNYQRAVARAGLASRWTNLGTVGTPMPAQPSTVSSGLKTGTSQPNGQMPQAIPSAGPPLQEAQTQIETTKDEKQGLGNHSPGATRENHRPKSSLPPPPPPVRRSSDTCGSPALPSKVKGPGTCTFPHPPENFLPPPPPPPPEEDNSGLLPPPPPPPYLEEPPDFVPPPPPPAAVEDSALPPPPPPPPCLSQEITKSSPLPPKKPLVPPKRQENQGLPGAPGNSEQDFMSDLMKALQKKRGNIP

Variants of B1 are the subject of one assay. The settings on record: with tln1_mouse Tln1, P26039.
Sequence of tln1_mouse Tln1, P26039 (P26039 whole entry): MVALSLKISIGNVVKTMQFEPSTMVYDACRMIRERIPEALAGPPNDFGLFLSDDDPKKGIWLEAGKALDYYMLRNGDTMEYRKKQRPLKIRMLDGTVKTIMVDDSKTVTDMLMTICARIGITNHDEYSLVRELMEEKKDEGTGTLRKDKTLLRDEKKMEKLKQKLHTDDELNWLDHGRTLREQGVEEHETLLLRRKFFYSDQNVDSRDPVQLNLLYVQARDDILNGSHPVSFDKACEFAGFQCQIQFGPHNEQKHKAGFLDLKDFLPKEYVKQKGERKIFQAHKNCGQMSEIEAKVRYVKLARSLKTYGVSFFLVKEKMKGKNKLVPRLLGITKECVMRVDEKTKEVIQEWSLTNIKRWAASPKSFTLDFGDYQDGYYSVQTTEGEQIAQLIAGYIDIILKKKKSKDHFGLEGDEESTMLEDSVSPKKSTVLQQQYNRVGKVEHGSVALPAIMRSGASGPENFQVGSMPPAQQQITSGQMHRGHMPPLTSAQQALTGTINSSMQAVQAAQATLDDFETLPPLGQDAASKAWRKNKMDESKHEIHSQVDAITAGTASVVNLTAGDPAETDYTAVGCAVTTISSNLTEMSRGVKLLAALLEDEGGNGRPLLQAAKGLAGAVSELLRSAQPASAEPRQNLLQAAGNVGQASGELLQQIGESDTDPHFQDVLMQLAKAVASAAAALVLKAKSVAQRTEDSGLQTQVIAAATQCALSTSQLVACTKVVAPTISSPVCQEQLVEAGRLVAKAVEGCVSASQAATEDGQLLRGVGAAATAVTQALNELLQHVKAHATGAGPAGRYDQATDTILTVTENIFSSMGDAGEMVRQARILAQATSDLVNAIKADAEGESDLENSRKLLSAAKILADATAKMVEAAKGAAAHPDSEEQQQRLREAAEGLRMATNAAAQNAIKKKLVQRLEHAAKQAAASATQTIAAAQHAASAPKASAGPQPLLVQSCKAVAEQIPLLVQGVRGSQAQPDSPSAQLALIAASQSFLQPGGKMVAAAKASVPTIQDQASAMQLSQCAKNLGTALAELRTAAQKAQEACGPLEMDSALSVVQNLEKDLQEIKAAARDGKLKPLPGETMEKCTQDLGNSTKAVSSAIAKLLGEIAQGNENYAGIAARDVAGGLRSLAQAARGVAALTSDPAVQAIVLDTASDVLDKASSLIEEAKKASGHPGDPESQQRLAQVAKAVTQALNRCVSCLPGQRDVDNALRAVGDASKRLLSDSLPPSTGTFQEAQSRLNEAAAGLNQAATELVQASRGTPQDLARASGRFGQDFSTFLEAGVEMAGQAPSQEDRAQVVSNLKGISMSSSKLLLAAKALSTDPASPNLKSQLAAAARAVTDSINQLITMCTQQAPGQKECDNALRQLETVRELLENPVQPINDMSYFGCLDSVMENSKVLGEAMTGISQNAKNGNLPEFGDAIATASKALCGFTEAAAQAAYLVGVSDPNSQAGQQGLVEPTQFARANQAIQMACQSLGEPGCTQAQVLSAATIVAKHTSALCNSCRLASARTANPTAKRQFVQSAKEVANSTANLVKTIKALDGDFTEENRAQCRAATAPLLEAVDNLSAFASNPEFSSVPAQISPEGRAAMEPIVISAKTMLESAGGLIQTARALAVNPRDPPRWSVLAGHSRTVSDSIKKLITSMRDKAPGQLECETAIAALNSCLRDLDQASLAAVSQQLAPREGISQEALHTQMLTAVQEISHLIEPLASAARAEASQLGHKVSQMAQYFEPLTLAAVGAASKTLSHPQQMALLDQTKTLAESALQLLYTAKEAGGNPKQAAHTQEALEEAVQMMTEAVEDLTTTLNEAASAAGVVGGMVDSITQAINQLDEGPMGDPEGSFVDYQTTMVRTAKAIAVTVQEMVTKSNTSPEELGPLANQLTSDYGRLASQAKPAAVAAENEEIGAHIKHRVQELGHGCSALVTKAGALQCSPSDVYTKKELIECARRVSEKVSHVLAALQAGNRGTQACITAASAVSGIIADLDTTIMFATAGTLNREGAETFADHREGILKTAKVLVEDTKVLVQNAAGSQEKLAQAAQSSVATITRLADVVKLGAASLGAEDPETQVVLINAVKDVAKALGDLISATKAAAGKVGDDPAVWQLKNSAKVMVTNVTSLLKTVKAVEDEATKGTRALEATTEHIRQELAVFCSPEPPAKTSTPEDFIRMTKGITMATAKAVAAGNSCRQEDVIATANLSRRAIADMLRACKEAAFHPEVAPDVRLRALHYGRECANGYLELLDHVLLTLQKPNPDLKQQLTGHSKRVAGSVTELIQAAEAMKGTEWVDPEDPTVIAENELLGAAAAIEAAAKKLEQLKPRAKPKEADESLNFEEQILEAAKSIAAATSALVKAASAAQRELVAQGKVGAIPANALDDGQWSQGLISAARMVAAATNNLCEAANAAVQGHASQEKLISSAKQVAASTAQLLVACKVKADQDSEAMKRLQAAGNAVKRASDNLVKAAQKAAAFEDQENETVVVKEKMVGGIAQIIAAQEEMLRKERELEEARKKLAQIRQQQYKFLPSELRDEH
In the case of G29S, the “effect of a mutation on the interaction” value is “increasing interaction strength”.

The next assay covers variants of B2. The settings on record: with tln1_mouse Tln1, P26039.
With E18A, the “effect of a mutation on the interaction” value is reported as “disrupting interaction strength”.

For the variant D9A, the “effect of a mutation on the interaction” value is recorded as “decreasing interaction strength”.

Consider L15Y, for which the “effect of a mutation on the interaction” value was “disrupting interaction strength”. With S13G, the “effect of a mutation on the interaction” value was “disrupting interaction strength”.

Variants of B2 are the subject of the next assay. As to conditions: with tln1_mouse Tln1, P26039. This is another data set of the same source.
Regarding S13G, the “effect of a mutation on the interaction” value was “decreasing interaction strength”.
